This assay addresses DOPAL-derived αS oligomers (αS incubated with 3,4-dihydroxyphenylacetaldehyde). The assay can be described thus: SDS-PAGE of SEC fractions.

As usually defined, the stoichiometry N is a count of units in the complex or per binding partner.

In the case of “DOPAL-derived αS oligomers (αS incubated with 3,4-dihydroxyphenylacetaldehyde)”, the stoichiometry N was 2.

Values taken from PMC8568656.
